For series [1], the target named is SusC^dex (B. thetaiotaomicron). The experiment in a line: cryo-EM structure; dextran utilisome (Bt3087-Bt3090), 0.05 mg/ml in 10 mM HEPES, 100 mM NaCl, pH 7.5, 0.03% DDM; heptamers, hexamers and pentamers; 3.1 Å consensus; AlphaFold2 models of SusD^dex, GH^dex and SGBP^dex docked into the map.
Series [2] concerns the molecule itself. The experiment in a line: cryo-EM structure; apo (substrate-free) levan utilisome, 3 mg/ml in 10 mM HEPES pH 7.5, 100 mM NaCl, 0.03% DDM; ~6 Å classes, 3.5 Å focused C2 refinement without SusD.

A word on the stoichiometry N: it is a count of units in the complex or per binding partner. Molecule SusC^dex (natural protein) gave a stoichiometry N in series [1] of 2.

B1: SusC^lev (natural protein, B. thetaiotaomicron, UniProt Q8A6W3 26-1041, looked up)
chain: GQNITVKGNVTSKTDGQPIIGASVVETTATTNGTITDFDGNFTLSVPVNSTLKITYIGYKPVTVKAAAIVNVLLEEDTQMVDEVVVTGYTTQRKADLTGAVSVVKVDEIQKQGENNPVKALQGRVPGMNITADGNPSGSATVRIRGIGTLNNNDPLYIIDGVPTKAGMHELNGNDIESIQVLKDAASASIYGSRAANGVIIITTKQGKKGQIKINFDASVSASMYQSKMNVLNTEQYGRAMWQAYVNDGENPNGNALGYAYNWGYNADGNPVLYGMTLSKYLDSKNTMPVADTDWFDEITRTGVIQQYNLSVSNGSEKGSSFFSLGYYKNLGVIKDTDFDRFSARMNSDYKLIDDILTIGQHFTLNRTSEVQAPGGIIETALDIPSAIPVYASDGSWGGPVGGWPDRRNPRAVLEYNKDNRYTYWRMFGDAYVNLTPFKGFNLRSTFGLDYANKQARYFTYPYQEGTQTNNGKSAVEAKQEHWTKWMWNAIATYQLEVGKHRGDVMIGMELNREDDSHFSGYKEDFSILTPDYMWPDAGSGTAQAYGAGEGYSLVSFFGKMNYSYADRYLLSLTLRRDGSSRFGKNHRYATFPSVSLGWRITQENFMKELTWLDDLKLRASWGQTGNQEISNLARYTIYAPNYGTTDSFGGQSYGTAYDITGSNGGGVLPSGFKRNQIGNDNIKWETTTQTNVGIDFSLFKQSLYGSLEYYYKKATDILTEMAGVGVLGEGGSRWINSGAMKNQGFEFNLGYRNKTAFGLTYDLNGNISTYRNEILELPETVAANGKFGGNGVKSVVGHTYGAQVGYIADGIFKSQDEVDNHATQEGAAVGRIRYRDIDHNGVIDERDQNWIYDPTPSFSYGLNIYLEYKNFDLTMFWQGVQGVDIISDVKKKSDFWSASNVGFLNKGTRLLNAWSPTNPNSDIPALTRSDTNNEQRVSTYFVENGSFLKLRNIQLGYTVPAVISKKMRMDRLRFYCSAQNLLTIKSKNFTGEDPENPNFSYPIPVNITFGLNIGF
notes: SusC^lev, the TonB-dependent outer membrane transporter (SusC) of the levan PUL of B. thetaiotaomicron; Two copies stand in the utilisome (SusC2D2 core); written here without a tag; also called levan SusC; source: endogenous, B. thetaiotaomicron grown on fructose; co-purified from detergent-solubilised membranes (LDAO sample; DDM sample: Ni2+ column, SEC)
With B1, in series [2], the “stoichiometry N” value was 2.
